Results as given in PMC10163220.

How the values were obtained:
[1] = biological target: ZIKV NS4A N-terminal peptide construct (residues 4–58) with N-terminal His-tag and linker (Zika virus (strain MR-766)); assay: AUC; sedimentation equilibrium; approx. 10, 20 and 40 µM in 50 mM Tris–HCl pH 7.3, 150 mM NaCl; 23,000, 28,000, 34,500 and 42,000 rpm; 280 nm; self-equilibrium models in SEDPHAT, monomer to dimer to trimer
[2] = biological target: ZIKV NS4A N-terminal peptide construct (residues 4–58) with N-terminal His-tag and linker (Zika virus (strain MR-766)); assay: AUC; sedimentation velocity; 50 mM Tris–HCl (pH 7.4), approx. 3–300 µM, 50,000 rpm, 20 °C, absorbance at 230 or 280 nm; c(s), c(s,ff0) and hybrid local continuous global discrete (non-interacting) analysis; no detergent or lipids

ZIKV NS4A N-terminal peptide construct (residues 4–58) with N-terminal His-tag and linker
percent of monomers in trimers at 50 µM [1]: 50%
stoichiometry N [1]: 3
stoichiometry N [2]: 3
